B1: Poly(rC)-binding protein 1, residues 278 to 350; numbered along this chain, Q15365 (parent)
chain: TQTTHELTIPNNLIGCIIGRQGANINEIRQMSGAQIKIANPVEGSSGRQVTITGSAASISLAQYLINARLSSE

Variants of: B1
Assay: abundance fitness (aPCA) (normalised: wild type 0, dead -1); higher = more abundant; growth selection in yeast, the domain comes from the species named
Details: Homo sapiens

Abundance fitness of substitutions, site by site:
R20: A 0.028 | H 0.139 | E 0.012 | K 0.048 | P 0.155 | Y 0.019 | T -0.167 | L -0.035 | S -0.082 | V -0.031 | M -0.138 | N 0.27 | F 0.1 | G -0.173 | D 0.042 | W -0.188 | I -0.074 | Q -0.008 | C -0.04
G19: M -0.774 | T -0.732 | K -0.194 | L -0.815 | Q -0.532 | H -0.833 | N -0.655 | R -0.609 | S -0.473 | D -0.321 | E -0.431 | V -0.991 | W -0.831 | I -0.583 | P -0.423 | A -0.481
I25: C -1.01 | V -0.308 | H 0.296 | D -0.908 | L -0.072 | P -0.84 | W -0.622 | K -0.873 | M -0.169 | A -0.565 | S -0.674 | T -0.367 | R -0.803 | G -0.58 | N -0.931 | Q -0.564 | F -0.539
Q21: G -0.106 | T -0.207 | S -0.09 | N 0.052 | R -0.012 | E -0.09 | H -0.032 | L -0.437 | W -0.339 | D -0.134 | I -0.844 | M -0.322 | C -0.281 | F -0.236 | K 0.081 | Y -0.217 | P -0.568
G22: V -0.703 | T -0.373 | S 0.01 | D -0.249 | M -0.205 | C -0.113 | I -1.04 | E 0.137 | P -0.583 | L -0.408 | N 0.089 | Q -0.228 | Y -0.383 | H -0.122 | R -0.271 | K -0.329
N11: H -0.025 | F -0.061 | L -0.473 | K -0.171 | A -0.075 | E -0.045 | M -0.28 | D 0.186 | V -0.352 | R -0.264 | W -0.425 | P -0.347 | I -0.21 | T -0.169 | Y -0.549 | S -0.09 | C -0.165
G15: Q -0.162 | R -0.136 | V -0.526 | E -0.062 | L -0.465 | Y -0.046 | S -0.035 | W -0.14 | D 0.002 | C -0.353 | F -0.438 | I -0.751 | H -0.072 | T -0.03 | M 0 | A -0.092 | N 0.016 | K -0.083
P10: T -0.549 | I -0.696 | G -0.474 | Q -0.538 | E -0.237 | N -0.938 | L -0.597 | S -0.274 | K -0.181 | R -0.504 | M -0.868 | W -0.915 | H -0.442 | A -0.117 | C -0.577 | D -0.363 | V -0.707
N24: F -0.13 | R 0.066 | P -0.088 | G -0.04 | Q 0.002 | M 0.038 | A 0.007 | L -0.134 | I -0.06 | K 0.076 | E -0.01 | C -0.196 | V -0.048 | Y 0.01 | S -0.033 | H -0.049 | D -0.003 | W -0.161
L13: V -0.404 | Q 0.14 | Y -0.07 | T -0.181 | K 0.062 | A -0.069 | I -0.076 | D -0.012 | P -0.959 | E -0.06 | R -0.082 | N -0.228 | C -0.21 | M 0.05 | W -0.265 | F -0.107 | S -0.041 | H -0.051 | G -0.477
N26: P -0.682 | A -0.002 | V -0.327 | L -0.291 | R 0.032 | M -0.094 | F -0.354 | E -0.035 | W -0.34 | G -0.27 | K 0.104 | C -0.196 | I -0.119 | Q 0.025 | H -0.193 | D -0.08 | S -0.003 | T -0.022
I28: L -0.143 | E -0.895 | Q -0.683 | D -0.524 | F -0.65 | G -0.78 | M -0.281 | A -0.735 | P -0.939 | C -0.633 | H -0.956 | R -0.825
E27: Q 0.028 | V -0.26 | K 0.021 | I -0.164 | C -0.169 | A -0.18 | M 0.014 | P -0.704 | G -0.244 | R 0.005 | D -0.099 | W -0.136 | H -0.09 | Y -0.157 | F -0.564 | N 0.08 | T -0.102 | S -0.035 | L -0.225
C16: W -0.092 | R 0.138 | H -0.141 | A 0.059 | D -0.063 | Q 0.01 | L -0.107 | K 0.093 | M 0.092 | G -0.116 | F -0.031 | V -0.083 | Y -0.209 | I 0.266 | P -0.045 | T 0.131 | E -0.038 | S -0.042
A23: H 0.102 | N -0.167 | V -0.09 | E 0.056 | Y -0.296 | K 0.067 | C 0.018 | M -0.128 | R 0.102 | D -0.079 | P -0.401 | Q 0.05 | I -0.115 | L -0.22 | F 0.044 | G -0.069 | W -0.419
I9: Q -0.767 | V 0.076 | R -0.732 | P -0.835 | W -0.847 | T -0.79 | Y -0.567 | S -0.885
N12: K -0.004 | G -0.282 | T -0.053 | P -0.186 | C -0.267 | M -0.316 | R 0.027 | E -0.202 | D -0.272 | A -0.148 | V -0.306 | L -0.35 | S -0.022 | F -0.459 | H -0.009
I14: P -0.647 | M -0.118 | Q -0.73 | R -0.573 | T -0.17 | V -0.116 | K -0.855 | N -0.762 | F -0.378 | W -0.689 | D -0.876 | L -0.115 | E -0.769 | S -0.367 | H -0.485 | C -0.252 | A -0.228 | G -0.948
I17: E -0.782 | S -0.733 | L -0.022 | F -0.177 | G -0.585 | R -0.98 | M -0.562 | D -0.506 | H -0.831 | K -1.09 | P -1.17 | T -0.6 | V -0.106 | C -0.928 | A -0.715 | Q -0.878 | W -0.663 | Y -0.665
I18: T -0.218 | C -0.616 | P -0.808 | Q -0.756 | A -0.316 | L -0.355 | G -0.565 | E -0.118 | K -0.435 | S -0.433 | V -0.367 | F -0.321 | N -0.156 | H -0.767 | D -0.39 | R -0.636 | W -0.232

From the Human Domainome abundance scans (Beltran et al. 2025)
